The test deals with T1, podocalyxin-like protein-1 (PODXL) (human, UniProt O00592 23-558).
T1 construct: whole, on cells; In the flow cytometry experiments the target is undifferentiated hESC; also called PCLPI; Podocalyxin-like protein 1 precursor
T1 sequence (looked up): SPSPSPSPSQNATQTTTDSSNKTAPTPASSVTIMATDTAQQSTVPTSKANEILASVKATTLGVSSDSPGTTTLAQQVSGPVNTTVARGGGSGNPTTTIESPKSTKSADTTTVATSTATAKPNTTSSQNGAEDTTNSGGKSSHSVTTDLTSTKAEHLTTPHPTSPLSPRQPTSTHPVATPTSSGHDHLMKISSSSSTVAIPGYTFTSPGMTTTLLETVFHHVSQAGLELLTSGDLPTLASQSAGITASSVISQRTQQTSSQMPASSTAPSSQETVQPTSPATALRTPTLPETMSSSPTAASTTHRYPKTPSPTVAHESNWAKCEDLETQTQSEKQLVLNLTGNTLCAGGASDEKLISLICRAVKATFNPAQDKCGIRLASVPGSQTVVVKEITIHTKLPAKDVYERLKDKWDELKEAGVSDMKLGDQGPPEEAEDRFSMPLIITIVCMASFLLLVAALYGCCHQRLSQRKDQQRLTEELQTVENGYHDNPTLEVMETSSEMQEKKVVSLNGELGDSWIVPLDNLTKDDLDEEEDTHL
Briefly: kinetics of binding to PODXL on the surface of hESCs; method not stated.

In general, Kd refers to the free concentration of one partner at which half of the binding sites on the other are occupied at equilibrium, for simple one-to-one binding. A higher Kd goes with a looser complex. For orientation: koff means the rate constant with which the complex falls apart. Lower therefore signals slow dissociation. As a reminder, the kon is a measure of how fast the partners come together. Low readings indicate slower complex formation, high ones faster complex formation.

B1: monoclonal antibody mAb 84 (antibody, V domains shown)
VH: QVQLQQSGGGLVQPGGSMKLSCVASGFTFSNYWMNWVRQSPEKGLEWVAEIRLKSNNYATHYAESVKGRFTISRDDSKSSVYLQMNNLRAEDTGIYYCTGERAWGQGTTVTVSS
VL: DIELTQSPAIMSASPGEKVTMTCSASSSVNYMYWYQQKPGSSPRLLIYDTSNLASGVPVRFSGSGSGTSYSLTISRMEAEDAATYYCQQWSSYPYTFGGGTKLEIKR
B1 came in with a Kd of 40 nM, a koff of 0.0029 s⁻¹ and a kon of 71000 M⁻¹ s⁻¹.

The values are drawn from US20120301899A1 (AGENCY FOR SCIENCE TECHNOLOGY AND RESEARCH, published 2012).
